# From paper PMC9684507
# Target: T1, glucocorticoid receptor (GR) ((MCF-7 breast cancer cells)) (UniProt P04150)
# T1 sequence: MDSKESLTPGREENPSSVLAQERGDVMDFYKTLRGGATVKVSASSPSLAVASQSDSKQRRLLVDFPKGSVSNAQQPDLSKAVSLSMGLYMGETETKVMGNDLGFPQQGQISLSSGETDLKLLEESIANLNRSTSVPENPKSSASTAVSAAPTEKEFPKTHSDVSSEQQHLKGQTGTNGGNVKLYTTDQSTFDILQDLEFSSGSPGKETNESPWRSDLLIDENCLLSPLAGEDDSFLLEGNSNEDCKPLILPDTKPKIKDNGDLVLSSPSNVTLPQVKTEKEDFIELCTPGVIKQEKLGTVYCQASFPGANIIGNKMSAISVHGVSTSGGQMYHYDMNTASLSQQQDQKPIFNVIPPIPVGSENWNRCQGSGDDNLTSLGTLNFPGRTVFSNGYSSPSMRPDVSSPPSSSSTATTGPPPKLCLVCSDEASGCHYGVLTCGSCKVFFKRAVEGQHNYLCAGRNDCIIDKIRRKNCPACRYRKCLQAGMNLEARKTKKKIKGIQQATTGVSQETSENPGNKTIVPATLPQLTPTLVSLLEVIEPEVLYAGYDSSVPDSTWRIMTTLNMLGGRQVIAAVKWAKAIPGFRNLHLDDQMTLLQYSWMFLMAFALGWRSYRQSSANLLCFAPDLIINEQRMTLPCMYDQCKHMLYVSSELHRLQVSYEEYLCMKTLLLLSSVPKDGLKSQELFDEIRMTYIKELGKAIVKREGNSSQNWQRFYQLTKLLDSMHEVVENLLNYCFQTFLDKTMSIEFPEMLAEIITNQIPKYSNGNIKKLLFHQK
# Assay: EMSA supershift
# Conditions: LightShift Chemiluminescent EMSA Kit (Thermo), 6% polyacrylamide gel, antibody 1:250, additional 30 min, buffer, salt, pH and temperature not stated
Sequence,"binding signal (fraction of G-probe band intensity) (dexamethasone-treated MCF-7 nuclear extract, anti-GR antibody, reference)",binding signal (scale: fraction of G-probe supershift band intensity)
TTCTGATCTTTGTTTTGCTTTTCTTGGCTTCTG (double strand) [rs28714259 G (major) probe],1,
TTCTGATCTTTGTTTTACTTTTCTTGGCTTCTG (double strand) [rs28714259 A (risk) probe],,< 0.4
